# PMC8998557, “A Novel Family of Winged-Helix Single-Stranded DNA-Binding Proteins from Archaea”
# Numbering of substitutions follows the chain as printed.
# T1: Sul7s K58A (Sulfolobus islandicus Rey15A, UniProt F0NBY5 1-59, K58A)
# T1 sequence: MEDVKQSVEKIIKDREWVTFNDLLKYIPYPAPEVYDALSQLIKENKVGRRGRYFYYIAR
# T2: Sul7s N21A (Sulfolobus islandicus Rey15A, UniProt F0NBY5 1-59, N21A)
# T2 sequence: T1 sequence with N21A, A58K
# T3: Sul7s K43A (Sulfolobus islandicus Rey15A, UniProt F0NBY5 1-59, K43A)
# T3 sequence: T1 sequence with K43A, A58K
# T4: Sul7s (Sulfolobus islandicus Rey15A, UniProt F0NBY5 1-59)
# T4 sequence: T1 sequence with A58K
# T5: Sul7s W17A (Sulfolobus islandicus Rey15A, UniProt F0NBY5 1-59, W17A)
# T5 sequence: T1 sequence with W17A, A58K
# T6: Sul7s E33A (Sulfolobus islandicus Rey15A, UniProt F0NBY5 1-59, E33A)
# T6 sequence: T1 sequence with E33A, A58K
# T7: Sul7s K13A (Sulfolobus islandicus Rey15A, UniProt F0NBY5 1-59, K13A)
# T7 sequence: T1 sequence with K13A, A58K
# T8: Sul7s Y56A (Sulfolobus islandicus Rey15A, UniProt F0NBY5 1-59, Y56A)
# T8 sequence: T1 sequence with Y56A, A58K
# T9: Sul7s D3A (Sulfolobus islandicus Rey15A, UniProt F0NBY5 1-59, D3A)
# T9 sequence: T1 sequence with D3A, A58K
# T10: Sul7s T19G (Sulfolobus islandicus Rey15A, UniProt F0NBY5 1-59, T19G)
# T10 sequence: T1 sequence with T19G, A58K
# T11: Sul7s R15A (Sulfolobus islandicus Rey15A, UniProt F0NBY5 1-59, R15A)
# T11 sequence: T1 sequence with R15A, A58K
# T12: Sul7s R52A (Sulfolobus islandicus Rey15A, UniProt F0NBY5 1-59, R52A)
# T12 sequence: T1 sequence with R52A, A58K
# T13: Sul7s R59A (Sulfolobus islandicus Rey15A, UniProt F0NBY5 1-59, R59A)
# T13 sequence: T1 sequence with A58K, R59A
# T14: Sul7s R49A (Sulfolobus islandicus Rey15A, UniProt F0NBY5 1-59, R49A)
# T14 sequence: T1 sequence with R49A, A58K
# T15: Sul7s D36A (Sulfolobus islandicus Rey15A, UniProt F0NBY5 1-59, D36A)
# T15 sequence: T1 sequence with D36A, A58K
# B1: D30 (dsDNA)
# DNA 1: TTTCTACCCTTTGGTGCTAATGCCCATACT
# DNA 2: AGTATGGGCATTAGCACCAAAGGGTAGAAA
# Tests used:
# Sul7s K58A = target: T1, Sul7s K58A; experiment: BLI; BLI: 50 mM Tris-Cl pH 7.5, 100 mM NaCl, 1 mM EDTA, 0.02% Tween-20, 30 C; NMR: 20 mM potassium phosphate pH 7.0, 30 mM NaCl, 0.02% NaN3, 298 K; conditions: protein: recombinant; tags: untagged; label: 5'-biotin
# Sul7s N21A = target: T2, Sul7s N21A; experiment: as above; conditions: protein: recombinant; tags: untagged; label: 5'-biotin
# Sul7s K43A = target: T3, Sul7s K43A; experiment: as above; conditions: protein: recombinant; tags: untagged; label: 5'-biotin
# Sul7s [1] = target: T4, Sul7s; experiment: as above; conditions: protein: recombinant, tags: untagged
# Sul7s W17A = target: T5, Sul7s W17A; experiment: as above; conditions: protein: recombinant; tags: untagged; label: 5'-biotin
# Sul7s E33A = target: T6, Sul7s E33A; experiment: as above; conditions: protein: recombinant; tags: untagged; label: 5'-biotin
# Sul7s K13A = target: T7, Sul7s K13A; experiment: as above; conditions: protein: recombinant; tags: untagged; label: 5'-biotin
# Sul7s Y56A = target: T8, Sul7s Y56A; experiment: as above; conditions: protein: recombinant; tags: untagged; label: 5'-biotin
# Sul7s D3A = target: T9, Sul7s D3A; experiment: as above; conditions: protein: recombinant; tags: untagged; label: 5'-biotin
# Sul7s T19G = target: T10, Sul7s T19G; experiment: as above; conditions: protein: recombinant; tags: untagged; label: 5'-biotin
# Sul7s R15A = target: T11, Sul7s R15A; experiment: as above; conditions: protein: recombinant; tags: untagged; label: 5'-biotin
# Sul7s R52A = target: T12, Sul7s R52A; experiment: BLI; barely detected up to 80 uM protein; BLI: 50 mM Tris-Cl pH 7.5, 100 mM NaCl, 1 mM EDTA, 0.02% Tween-20, 30 C; NMR: 20 mM potassium phosphate pH 7.0, 30 mM NaCl, 0.02% NaN3, 298 K; conditions: protein: recombinant; tags: untagged; label: 5'-biotin
# Sul7s R59A = target: T13, Sul7s R59A; experiment: as above; conditions: protein: recombinant; tags: untagged; label: 5'-biotin
# Sul7s R49A = target: T14, Sul7s R49A; experiment: as above; conditions: protein: recombinant; tags: untagged; label: 5'-biotin
# Sul7s D36A = target: T15, Sul7s D36A; experiment: BLI; text calls decrease marginal, in conflict with table value; BLI: 50 mM Tris-Cl pH 7.5, 100 mM NaCl, 1 mM EDTA, 0.02% Tween-20, 30 C; NMR: 20 mM potassium phosphate pH 7.0, 30 mM NaCl, 0.02% NaN3, 298 K; conditions: protein: recombinant; tags: untagged; label: 5'-biotin
# Sul7s [2] = target: T4, Sul7s; experiment: NMR; 0.7 mM 15N/13C protein, HSQC titration; BLI: 50 mM Tris-Cl pH 7.5, 100 mM NaCl, 1 mM EDTA, 0.02% Tween-20, 30 C; NMR: 20 mM potassium phosphate pH 7.0, 30 mM NaCl, 0.02% NaN3, 298 K; conditions: protein: recombinant; tags: untagged
binder,measurement,setting,value
TTTCTACCCTTTGGTGCTAATGCCCATACT (ssDNA) [S30 (S30-F)],Kd,Sul7s K58A,26.9 µM
same,Kd,Sul7s N21A,8.92 µM
same,Kd,Sul7s K43A,27.9 µM
same,Kd,Sul7s [1]; label: 5'-biotin,5.62 ± 0.95 µM
same,Kd,Sul7s W17A,10.7 µM
same,Kd,Sul7s E33A,1210 nM
same,Kd,Sul7s K13A,30.4 µM
same,Kd,Sul7s Y56A,15.6 µM
same,Kd,Sul7s D3A,6.01 µM
same,Kd,Sul7s T19G,14.1 µM
same,Kd,Sul7s R15A,4.67 µM
same,binding result,Sul7s R52A,no binding
same,binding result,Sul7s R59A,no binding
same,binding result,Sul7s R49A,no binding
same,Kd,Sul7s D36A,88.3 µM
B1,Kd,"Sul7s [1]; label: 5'-biotin on strand 1, blunt",76.8 ± 16.9 µM
TTTTTTTTTTTTTTTTTTTTTTTTTTTTTT (ssDNA) [T30],Kd,Sul7s [1]; label: 5'-biotin,1.19 ± 0.3 µM
GTAGTCAGACACAGTAGTTC (ssDNA) [S20-F],binding result,Sul7s [2],binds
CTGGGGGCTGGGGGCTGGGGGCTGGGGGCT (ssDNA) [G-rich30],Kd,Sul7s [1]; label: 5'-biotin,17.5 ± 4.8 µM
